Columns and labels:
[1] = target: BS69 MYND domain (BS69_(MYND), residues 516–562) (mouse); assay: ITC; peptide (~1 mM) titrated into BS69_(MYND) or BS69_(CC-MYND) (~0.1 mM) at 5°C; 20 mM Tris-HCl pH 7.5, 100 mM NaCl, 2 mM DTT; one-site fitting model
[2] = target: BS69/ZMYND11 coiled-coil-MYND tandem domains (BS69_(CC-MYND), residues 440–562) (mouse); assay: as above

B1: EBNA2_(435–445) peptide (NH2-…-CONH2) (peptide)
peptide: H-EAPILFPDDWY-NH2
Kd [1]: 93.4 µM | Kd [2]: 34.9 µM

Source: article PMC4742278, “BS69/ZMYND11 C-Terminal Domains Bind and Inhibit EBNA2” (PLoS Pathogens, 2016)
